Values of other authors as cited in article PMC5466818.

Biological target: formin Bnr1 (Saccharomyces cerevisiae) (UniProt P40450)
Chain of UniProt P40450 (P40450 whole entry): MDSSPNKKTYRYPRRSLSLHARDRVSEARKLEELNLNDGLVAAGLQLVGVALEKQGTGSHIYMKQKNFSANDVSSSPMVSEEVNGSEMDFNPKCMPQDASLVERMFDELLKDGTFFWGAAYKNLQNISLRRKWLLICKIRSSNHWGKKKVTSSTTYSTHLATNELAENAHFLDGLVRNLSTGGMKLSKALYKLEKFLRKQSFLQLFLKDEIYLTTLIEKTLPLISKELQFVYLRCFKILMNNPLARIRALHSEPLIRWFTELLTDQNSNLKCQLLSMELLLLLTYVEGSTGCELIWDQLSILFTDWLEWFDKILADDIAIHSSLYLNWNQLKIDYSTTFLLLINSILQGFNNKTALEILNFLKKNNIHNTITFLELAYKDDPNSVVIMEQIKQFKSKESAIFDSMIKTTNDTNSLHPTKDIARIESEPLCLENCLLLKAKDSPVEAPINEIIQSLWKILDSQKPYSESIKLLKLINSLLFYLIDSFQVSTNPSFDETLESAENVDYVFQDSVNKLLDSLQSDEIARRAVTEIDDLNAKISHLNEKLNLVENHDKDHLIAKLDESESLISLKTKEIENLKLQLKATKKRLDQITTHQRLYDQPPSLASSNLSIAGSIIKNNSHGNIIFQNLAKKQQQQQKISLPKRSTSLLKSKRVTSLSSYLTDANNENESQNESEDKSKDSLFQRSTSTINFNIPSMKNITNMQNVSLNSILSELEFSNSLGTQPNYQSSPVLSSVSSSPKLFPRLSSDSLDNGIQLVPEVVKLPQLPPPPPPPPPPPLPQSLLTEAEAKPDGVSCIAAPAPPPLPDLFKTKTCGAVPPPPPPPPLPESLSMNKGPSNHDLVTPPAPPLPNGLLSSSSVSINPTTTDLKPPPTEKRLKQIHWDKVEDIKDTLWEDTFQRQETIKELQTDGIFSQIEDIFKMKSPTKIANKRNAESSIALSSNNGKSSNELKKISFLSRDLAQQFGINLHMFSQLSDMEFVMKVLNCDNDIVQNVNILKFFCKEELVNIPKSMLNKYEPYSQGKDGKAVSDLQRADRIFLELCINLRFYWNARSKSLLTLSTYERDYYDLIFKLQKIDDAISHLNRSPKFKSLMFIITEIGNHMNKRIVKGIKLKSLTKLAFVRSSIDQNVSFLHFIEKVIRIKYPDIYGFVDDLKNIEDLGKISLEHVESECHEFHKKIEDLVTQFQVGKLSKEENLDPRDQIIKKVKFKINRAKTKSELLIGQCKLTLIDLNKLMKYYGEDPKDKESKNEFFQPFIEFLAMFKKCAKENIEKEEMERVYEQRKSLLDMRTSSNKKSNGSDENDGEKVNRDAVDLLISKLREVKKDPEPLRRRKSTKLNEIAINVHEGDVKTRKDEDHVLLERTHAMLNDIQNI

Kd: 15 nM
Substance: Bud14 (from UniProt P27637)
